Reference: patent publication US20230002480A1

Columns and labels:
Experiment in all cases: cell-based or functional assay
[1] = target: HIV-1 Env of pseudovirus Ce2010_F5 (HIV-1)
[2] = target: HIV-1 Env of pseudovirus REJO4541.67 (HIV-1)
[3] = target: HIV-1 Env of pseudovirus 246F C1G (HIV-1)
[4] = target: HIV-1 Env of pseudovirus Ce1172_H1 (HIV-1)
[5] = target: HIV-1 Env of pseudovirus T255-34 (HIV-1)
[6] = target: HIV-1 Env of pseudovirus CAAN5342.A2 (HIV-1)
[7] = target: HIV-1 Env of pseudovirus Q259.d2.17 (HIV-1)
[8] = target: HIV-1 Env of pseudovirus 620345.c01 (HIV-1)
[9] = target: HIV-1 Env of pseudovirus CNE52 (HIV-1)
[10] = target: HIV-1 Env of pseudovirus AC10.0.29 (HIV-1)
[11] = target: HIV-1 Env of pseudovirus BJOX010000.06.2 (HIV-1)
[12] = target: HIV-1 Env of pseudovirus C2101.c01 (HIV-1)
[13] = target: HIV-1 Env of pseudovirus CNE21 (HIV-1)
[14] = target: HIV-1 Env of pseudovirus WEAU_d15_410_787 (HIV-1)
[15] = target: HIV-1 Env of pseudovirus R1166.c01 (HIV-1)
[16] = target: HIV-1 Env of pseudovirus 1006_11_C3_1601 (HIV-1)
[17] = target: HIV-1 Env of pseudovirus THRO4156.18 (HIV-1)
[18] = target: HIV-1 Env of pseudovirus ZM249M.PL1 (HIV-1)
[19] = target: HIV-1 Env of pseudovirus R3265.c06 (HIV-1)
[20] = target: HIV-1 Env of pseudovirus CNE8 (HIV-1)
[21] = target: HIV-1 Env of pseudovirus 6244_13_B5_4576 (HIV-1)
[22] = target: HIV-1 Env of pseudovirus WITO4160.33 (HIV-1)
[23] = target: HIV-1 Env of pseudovirus HIV-16845-2.22 (HIV-1)
[24] = target: HIV-1 Env of pseudovirus CAP210.2.00.E8 (HIV-1)
[25] = target: HIV-1 Env of pseudovirus RHPA4259.7 (HIV-1)
[26] = target: HIV-1 Env of pseudovirus P0402_c2_11 (HIV-1)
[27] = target: HIV-1 Env of pseudovirus 7030102001E5(Rev-) (HIV-1)
[28] = target: HIV-1 Env of pseudovirus Ce703010054_2A2 (HIV-1)
[29] = target: HIV-1 Env of pseudovirus ZM135M.PL10a (HIV-1)
[30] = target: HIV-1 Env of pseudovirus 211-9 (HIV-1)
[31] = target: HIV-1 Env of pseudovirus CNE19 (HIV-1)
[32] = target: HIV-1 Env of pseudovirus BF1266.431a (HIV-1)

Substance: N49P7.1 (antibody)
- neutralization IC50 [1]: 0.055 µg/mL
- neutralization IC80 [1]: 0.208 µg/mL
- neutralization MPI [1]: 100
- neutralization IC50 [2]: 0.022 µg/mL
- neutralization IC80 [2]: 0.088 µg/mL
- neutralization MPI [2]: 100
- neutralization IC50 [3]: 0.049 µg/mL
- neutralization IC80 [3]: 0.165 µg/mL
- neutralization MPI [3]: 100
- neutralization IC50 [4]: 17.1 µg/mL
- neutralization IC80 [4]: > 50 µg/mL
- neutralization MPI [4]: 78
- neutralization IC50 [5]: 0.094 µg/mL
- neutralization IC80 [5]: 0.447 µg/mL
- neutralization MPI [5]: 100
- neutralization IC50 [6]: 0.55 µg/mL
- neutralization IC80 [6]: 1.59 µg/mL
- neutralization MPI [6]: 100
- neutralization IC50 [7]: 0.505 µg/mL
- neutralization IC80 [7]: 4.23 µg/mL
- neutralization MPI [7]: 97
- neutralization IC50 [8]: > 50 µg/mL
- neutralization IC80 [8]: > 50 µg/mL
- neutralization MPI [8]: 47
- neutralization IC50 [9]: 0.021 µg/mL
- neutralization IC80 [9]: 0.058 µg/mL
- neutralization MPI [9]: 100
- neutralization IC50 [10]: 5.31 µg/mL
- neutralization IC80 [10]: 46.8 µg/mL
- neutralization MPI [10]: 85
- neutralization IC50 [11]: 0.132 µg/mL
- neutralization IC80 [11]: 0.623 µg/mL
- neutralization MPI [11]: 100
- neutralization IC50 [12]: 0.076 µg/mL
- neutralization IC80 [12]: 0.425 µg/mL
- neutralization MPI [12]: 100
- neutralization IC50 [13]: 1.58 µg/mL
- neutralization IC80 [13]: 12.2 µg/mL
- neutralization MPI [13]: 96
- neutralization IC50 [14]: 0.058 µg/mL
- neutralization IC80 [14]: 0.142 µg/mL
- neutralization MPI [14]: 100
- neutralization IC50 [15]: 0.136 µg/mL
- neutralization IC80 [15]: 0.461 µg/mL
- neutralization MPI [15]: 100
- neutralization IC50 [16]: 0.061 µg/mL
- neutralization IC80 [16]: 0.193 µg/mL
- neutralization MPI [16]: 100
- neutralization IC50 [17]: 3.07 µg/mL
- neutralization IC80 [17]: 12.6 µg/mL
- neutralization MPI [17]: 98
- neutralization IC50 [18]: 0.071 µg/mL
- neutralization IC80 [18]: 0.239 µg/mL
- neutralization MPI [18]: 100
- neutralization IC50 [19]: 0.059 µg/mL
- neutralization IC80 [19]: 0.328 µg/mL
- neutralization MPI [19]: 100
- neutralization IC50 [20]: 0.048 µg/mL
- neutralization IC80 [20]: 0.167 µg/mL
- neutralization MPI [20]: 100
- neutralization IC50 [21]: 0.184 µg/mL
- neutralization IC80 [21]: 0.493 µg/mL
- neutralization MPI [21]: 100
- neutralization IC50 [22]: 0.121 µg/mL
- neutralization IC80 [22]: 0.326 µg/mL
- neutralization MPI [22]: 100
- neutralization IC50 [23]: 1.07 µg/mL
- neutralization IC80 [23]: 5.4 µg/mL
- neutralization MPI [23]: 100
- neutralization IC50 [24]: 2.03 µg/mL
- neutralization IC80 [24]: 7.3 µg/mL
- neutralization MPI [24]: 99
- neutralization IC50 [25]: 0.108 µg/mL
- neutralization IC80 [25]: 0.292 µg/mL
- neutralization MPI [25]: 100
- neutralization IC50 [26]: 0.029 µg/mL
- neutralization IC80 [26]: 0.115 µg/mL
- neutralization MPI [26]: 100
- neutralization IC50 [27]: 0.11 µg/mL
- neutralization IC80 [27]: 0.498 µg/mL
- neutralization MPI [27]: 100
- neutralization IC50 [28]: 0.085 µg/mL
- neutralization IC80 [28]: 0.364 µg/mL
- neutralization MPI [28]: 100
- neutralization IC50 [29]: 0.314 µg/mL
- neutralization IC80 [29]: 1.11 µg/mL
- neutralization MPI [29]: 99
- neutralization IC50 [30]: 0.34 µg/mL
- neutralization IC80 [30]: 1.17 µg/mL
- neutralization MPI [30]: 100
- neutralization IC50 [31]: 0.027 µg/mL
- neutralization IC80 [31]: 0.128 µg/mL
- neutralization MPI [31]: 100
- neutralization IC50 [32]: 0.033 µg/mL
- neutralization IC80 [32]: 0.11 µg/mL
- neutralization MPI [32]: 100

Substance: N49P7 (antibody)
- neutralization IC50 [1]: 0.13 µg/mL
- neutralization IC80 [1]: 0.547 µg/mL
- neutralization MPI [1]: 100
- neutralization IC50 [2]: 0.015 µg/mL
- neutralization IC80 [2]: 0.049 µg/mL
- neutralization MPI [2]: 100
- neutralization IC50 [3]: 0.094 µg/mL
- neutralization IC80 [3]: 0.255 µg/mL
- neutralization MPI [3]: 100
- neutralization IC50 [4]: 8.5 µg/mL
- neutralization IC80 [4]: 37.5 µg/mL
- neutralization MPI [4]: 92
- neutralization IC50 [5]: 0.053 µg/mL
- neutralization IC80 [5]: 0.262 µg/mL
- neutralization MPI [5]: 100
- neutralization IC50 [6]: 0.409 µg/mL
- neutralization IC80 [6]: 1.21 µg/mL
- neutralization MPI [6]: 100
- neutralization IC50 [7]: 0.332 µg/mL
- neutralization IC80 [7]: 2.47 µg/mL
- neutralization MPI [7]: 98
- neutralization IC50 [8]: 23.2 µg/mL
- neutralization IC80 [8]: 47.9 µg/mL
- neutralization MPI [8]: 82
- neutralization IC50 [9]: 0.008 µg/mL
- neutralization IC80 [9]: 0.023 µg/mL
- neutralization MPI [9]: 100
- neutralization IC50 [10]: 5.03 µg/mL
- neutralization IC80 [10]: 36.7 µg/mL
- neutralization MPI [10]: 89
- neutralization IC50 [11]: 0.085 µg/mL
- neutralization IC80 [11]: 0.592 µg/mL
- neutralization MPI [11]: 100
- neutralization IC50 [12]: 0.06 µg/mL
- neutralization IC80 [12]: 0.34 µg/mL
- neutralization MPI [12]: 100
- neutralization IC50 [13]: 0.756 µg/mL
- neutralization IC80 [13]: 6.02 µg/mL
- neutralization MPI [13]: 97
- neutralization IC50 [14]: 0.045 µg/mL
- neutralization IC80 [14]: 0.117 µg/mL
- neutralization MPI [14]: 100
- neutralization IC50 [15]: 0.092 µg/mL
- neutralization IC80 [15]: 0.313 µg/mL
- neutralization MPI [15]: 100
- neutralization IC50 [16]: 0.044 µg/mL
- neutralization IC80 [16]: 0.158 µg/mL
- neutralization MPI [16]: 100
- neutralization IC50 [17]: 2.34 µg/mL
- neutralization IC80 [17]: 12.4 µg/mL
- neutralization MPI [17]: 99
- neutralization IC50 [18]: 0.039 µg/mL
- neutralization IC80 [18]: 0.134 µg/mL
- neutralization MPI [18]: 100
- neutralization IC50 [19]: 0.048 µg/mL
- neutralization IC80 [19]: 0.282 µg/mL
- neutralization MPI [19]: 100
- neutralization IC50 [20]: 0.037 µg/mL
- neutralization IC80 [20]: 0.125 µg/mL
- neutralization MPI [20]: 100
- neutralization IC50 [21]: 0.111 µg/mL
- neutralization IC80 [21]: 0.386 µg/mL
- neutralization MPI [21]: 100
- neutralization IC50 [22]: 0.084 µg/mL
- neutralization IC80 [22]: 0.248 µg/mL
- neutralization MPI [22]: 100
- neutralization IC50 [23]: 0.95 µg/mL
- neutralization IC80 [23]: 3.94 µg/mL
- neutralization MPI [23]: 100
- neutralization IC50 [24]: 1.82 µg/mL
- neutralization IC80 [24]: 6.49 µg/mL
- neutralization MPI [24]: 100
- neutralization IC50 [25]: 0.083 µg/mL
- neutralization IC80 [25]: 0.246 µg/mL
- neutralization MPI [25]: 100
- neutralization IC50 [26]: 0.014 µg/mL
- neutralization IC80 [26]: 0.061 µg/mL
- neutralization MPI [26]: 100
- neutralization IC50 [27]: 0.184 µg/mL
- neutralization IC80 [27]: 0.832 µg/mL
- neutralization MPI [27]: 100
- neutralization IC50 [28]: 0.132 µg/mL
- neutralization IC80 [28]: 0.466 µg/mL
- neutralization MPI [28]: 100
- neutralization IC50 [29]: 0.2 µg/mL
- neutralization IC80 [29]: 0.96 µg/mL
- neutralization MPI [29]: 100
- neutralization IC50 [30]: 0.22 µg/mL
- neutralization IC80 [30]: 0.767 µg/mL
- neutralization MPI [30]: 100
- neutralization IC50 [31]: 0.009 µg/mL
- neutralization IC80 [31]: 0.041 µg/mL
- neutralization MPI [31]: 100
- neutralization IC50 [32]: 0.057 µg/mL
- neutralization IC80 [32]: 0.199 µg/mL
- neutralization MPI [32]: 100
